Test results from publication PMC5674885 (The Journal of Cell Biology, 2017).

Biological target: T1, kindlin-2 (recombinant, full length, amino acids 1–680) (mouse, UniProt Q8CIB5 1-680)
T1 sequence (looked up): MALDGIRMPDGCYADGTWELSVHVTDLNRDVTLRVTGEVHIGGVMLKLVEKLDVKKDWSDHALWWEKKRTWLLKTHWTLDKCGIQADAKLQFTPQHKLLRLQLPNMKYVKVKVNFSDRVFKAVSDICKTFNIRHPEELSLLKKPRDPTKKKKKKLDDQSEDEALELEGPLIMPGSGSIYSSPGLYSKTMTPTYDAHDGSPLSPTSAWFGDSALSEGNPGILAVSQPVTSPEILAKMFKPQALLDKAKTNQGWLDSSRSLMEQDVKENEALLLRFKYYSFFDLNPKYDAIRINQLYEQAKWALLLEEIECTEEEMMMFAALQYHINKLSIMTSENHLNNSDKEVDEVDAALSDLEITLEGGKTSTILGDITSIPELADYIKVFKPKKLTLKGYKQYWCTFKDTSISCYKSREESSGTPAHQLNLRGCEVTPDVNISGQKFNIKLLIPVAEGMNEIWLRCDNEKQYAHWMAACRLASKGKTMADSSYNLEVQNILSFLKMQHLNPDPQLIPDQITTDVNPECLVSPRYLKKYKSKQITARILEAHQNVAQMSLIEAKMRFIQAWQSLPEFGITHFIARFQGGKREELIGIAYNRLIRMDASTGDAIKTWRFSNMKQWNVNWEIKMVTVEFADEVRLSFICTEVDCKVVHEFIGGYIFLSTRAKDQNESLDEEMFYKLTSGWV
Test: ITC

B1: paxillin (recombinant, full length, amino acids 1–557) (natural protein)
chain: not shown
modifications: Atto520 label (NHS ester) in the ultracentrifugation of Fig. 1 B only
Binder B1 has a Kd of 205 ± 59 nM.
